{
  "source": "patent US20160108091A1",
  "about": "(Novartis, published 2016)",
  "binders": {"B1": {"name": "Ac-(D-hC)*-R-P-R-L-S-(D-hC)*-K-G-P-Nle-P-F-OH (peptide)", "peptide": "Ac-[d(hCys)]RPRLS[d(hCys)]KGP[Nle]PF-OH", "modifications": "disulfide 1-7", "SMILES": "CCCC[C@H](NC(=O)[C@@H]1CCCN1C(=O)CNC(=O)[C@H](CCCCN)NC(=O)[C@H]1CCSSCC[C@@H](NC(C)=O)C(=O)N[C@@H](CCCNC(=N)N)C(=O)N2CCC[C@H]2C(=O)N[C@@H](CCCNC(=N)N)C(=O)N[C@@H](CC(C)C)C(=O)N[C@@H](CO)C(=O)N1)C(=O)N1CCC[C@H]1C(=O)N[C@@H](Cc1ccccc1)C(=O)O"}, "B2": {"name": "Ac-(D-hC)*-R-P-R-L-S-hC*-K-G-P-Nle-P-F-OH (peptide)", "peptide": "Ac-[d(hCys)]RPRLS[hCys]KGP[Nle]PF-OH", "modifications": "disulfide 1-7", "SMILES": "CCCC[C@H](NC(=O)[C@@H]1CCCN1C(=O)CNC(=O)[C@H](CCCCN)NC(=O)[C@@H]1CCSSCC[C@@H](NC(C)=O)C(=O)N[C@@H](CCCNC(=N)N)C(=O)N2CCC[C@H]2C(=O)N[C@@H](CCCNC(=N)N)C(=O)N[C@@H](CC(C)C)C(=O)N[C@@H](CO)C(=O)N1)C(=O)N1CCC[C@H]1C(=O)N[C@@H](Cc1ccccc1)C(=O)O"}, "B3": {"name": "pE-R-C*-R-L-S-C*-K-G-P-Nle-P-F-OH (peptide)", "peptide": "[pGlu]RCRLSCKGP[Nle]PF-OH", "modifications": "disulfide 3-7", "SMILES": "CCCC[C@H](NC(=O)[C@@H]1CCCN1C(=O)CNC(=O)[C@H](CCCCN)NC(=O)[C@@H]1CSSC[C@H](NC(=O)[C@H](CCCNC(=N)N)NC(=O)[C@@H]2CCC(=O)N2)C(=O)N[C@@H](CCCNC(=N)N)C(=O)N[C@@H](CC(C)C)C(=O)N[C@@H](CO)C(=O)N1)C(=O)N1CCC[C@H]1C(=O)N[C@@H](Cc1ccccc1)C(=O)O"}, "B4": {"name": "Ac-c-R-P-R-L-S-(hC)-K-G-P-(D-Nle)-a-f-OH (peptide)", "peptide": "Ac-[dC]RPRLS[hCys]KGP[dNle][dA][dF]-OH", "modifications": "not fully specified; printed as Ac-c-R-P-R-L-S-(hC)-K-G-P-(D-Nle)-a-f-OH; cysteine pairing not given here"}, "B5": {"name": "pE-R-C*-R-L-S-C*-K-G-P-(D-Nle)-a-f-OH (peptide)", "peptide": "[pGlu]RCRLSCKGP[dNle][dA][dF]-OH", "modifications": "disulfide 3-7", "SMILES": "CCCC[C@@H](NC(=O)[C@@H]1CCCN1C(=O)CNC(=O)[C@H](CCCCN)NC(=O)[C@@H]1CSSC[C@H](NC(=O)[C@H](CCCNC(=N)N)NC(=O)[C@@H]2CCC(=O)N2)C(=O)N[C@@H](CCCNC(=N)N)C(=O)N[C@@H](CC(C)C)C(=O)N[C@@H](CO)C(=O)N1)C(=O)N[C@H](C)C(=O)N[C@H](Cc1ccccc1)C(=O)O"}, "B6": {"name": "pE-R-C*-R-L-S-C*-F-G-P-(D-Nle)-a-f-OH (peptide)", "peptide": "[pGlu]RCRLSCFGP[dNle][dA][dF]-OH", "modifications": "disulfide 3-7", "SMILES": "CCCC[C@@H](NC(=O)[C@@H]1CCCN1C(=O)CNC(=O)[C@H](Cc1ccccc1)NC(=O)[C@@H]1CSSC[C@H](NC(=O)[C@H](CCCNC(=N)N)NC(=O)[C@@H]2CCC(=O)N2)C(=O)N[C@@H](CCCNC(=N)N)C(=O)N[C@@H](CC(C)C)C(=O)N[C@@H](CO)C(=O)N1)C(=O)N[C@H](C)C(=O)N[C@H](Cc1ccccc1)C(=O)O"}, "B7": {"name": "Ac-(D-hC)*-R-P-R-L-S-(hC)*-K-G-P-f-a-f-OH (peptide)", "peptide": "Ac-[d(hCys)]RPRLS[hCys]KGP[dF][dA][dF]-OH", "modifications": "disulfide 1-7", "SMILES": "CC(=O)N[C@@H]1CCSSCC[C@@H](C(=O)N[C@@H](CCCCN)C(=O)NCC(=O)N2CCC[C@H]2C(=O)N[C@H](Cc2ccccc2)C(=O)N[C@H](C)C(=O)N[C@H](Cc2ccccc2)C(=O)O)NC(=O)[C@H](CO)NC(=O)[C@H](CC(C)C)NC(=O)[C@H](CCCNC(=N)N)NC(=O)[C@@H]2CCCN2C(=O)[C@H](CCCNC(=N)N)NC1=O"}},
  "note": "Bridges are numbered along the chain shown (N, C = ends). [ ]: non-standard residue; d: D form. The star is where a group is joined. pGlu = O=C1CC[C@@H](C(=O)O)N1; NHPhenethyl = c1ccc(CCN*)cc1; d(hCys) = N[C@H](CCS)C(=O)O; dNle = CCCC[C@@H](N)C(=O)O; hCys = N[C@@H](CCS)C(=O)O; Nle = CCCC[C@H](N)C(=O)O",
  "data": [
    {"target": "T1, human APJ receptor (hAPJ) (human, UniProt P35414 1-380)", "T1 sequence (looked up)": "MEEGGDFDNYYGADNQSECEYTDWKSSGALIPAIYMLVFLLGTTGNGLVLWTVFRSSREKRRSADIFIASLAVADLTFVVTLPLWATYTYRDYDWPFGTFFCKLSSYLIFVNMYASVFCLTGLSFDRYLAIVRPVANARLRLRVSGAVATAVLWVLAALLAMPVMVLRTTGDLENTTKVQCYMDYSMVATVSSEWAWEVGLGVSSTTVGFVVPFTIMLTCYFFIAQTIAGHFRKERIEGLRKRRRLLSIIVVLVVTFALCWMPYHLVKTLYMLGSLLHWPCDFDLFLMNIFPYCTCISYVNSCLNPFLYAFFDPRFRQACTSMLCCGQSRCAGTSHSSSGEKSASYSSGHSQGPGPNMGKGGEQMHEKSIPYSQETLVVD", "test": "cell-based or functional assay", "units": {"hAPJ Ca^2+ Flux EC50": "nM"}, "values": [
      {"binder": "B1", "hAPJ Ca^2+ Flux EC50": 410},
      {"binder": "B2", "hAPJ Ca^2+ Flux EC50": 14.1},
      {"binder": "B3", "hAPJ Ca^2+ Flux EC50": 1},
      {"binder": "Ac-CRPRLSCKGP[Nle]P-NHPhenethyl (disulfide 1-7)", "note": "[Ac-C*-R-P-R-L-S-C*-K-G-P-Nle-P-NH(Phenethyl)]", "hAPJ Ca^2+ Flux EC50": 3.2},
      {"binder": "B4", "hAPJ Ca^2+ Flux EC50": 79.3},
      {"binder": "B5", "hAPJ Ca^2+ Flux EC50": 2.9},
      {"binder": "B6", "hAPJ Ca^2+ Flux EC50": 3.3},
      {"binder": "B7", "hAPJ Ca^2+ Flux EC50": 174}
    ]}
  ]
}
